Results: US20100204147A1, “Methods For Delivering Thymosin Beta 4, Analogues, Isoforms and Other Derivatives” (REGENERX BIOPHARMACEUTICALS, INC., priority 2003, published 2010)

Key:
Assay in all cases: cell-based or functional assay
[1] = target: Recombinant γ-module comprising residues 148-411 of the human fibrinogen γ chain (human) (UniProt P02679)
[2] = target: Fibrin (made from human fibrinogen with bovine thrombin) (human) (UniProt P02671)
[3] = target: Human fibrinogen depleted of plasminogen, fibronectin and von Willebrand factor (human) (UniProt P02671)

Substance	apparent Michaelis constant (Km) for the reaction of incorporation by factor XIIIa [1]	degree of factor XIIIa-mediated incorporation after 4 hours (spectrophotometric) (moles per mole) [2]	degree of factor XIIIa-mediated incorporation after 4 hours (spectrophotometric) (moles per mole) [3]
Synthetic thymosin β4 (from UniProt P62328 2-44) (peptide)	183 µM		
FITC-labeled thymosin β4 (from UniProt P62328 2-44) (peptide)		0.4	0.2
